Article PMC5446404 (2017)

Assays:
[1] = target: T1, recombinant human fortilin (Strep-tag II), biotinylated (human, UniProt P13693 1-172, biotinylated (sites not given)); test: BLI; dephosphorylated IRE1α
T1 chain: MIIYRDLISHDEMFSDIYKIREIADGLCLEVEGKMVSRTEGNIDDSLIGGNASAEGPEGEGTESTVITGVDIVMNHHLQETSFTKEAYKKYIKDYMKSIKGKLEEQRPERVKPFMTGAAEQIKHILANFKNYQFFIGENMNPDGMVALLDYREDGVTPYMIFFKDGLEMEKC

[2] = target: T1, recombinant human fortilin (Strep-tag …); test: BLI; phosphorylated IRE1α
[3] = target: T1, recombinant human fortilin (Strep-tag …); test: BLI

B1: de-phosphorylated IRE1α-Myc-DDK (aa 1-977) (natural protein)
chain: IFGSTSTVTLPETLLFVSTLDGSLHAVSKRTGSIKWTLKEDPVLQVPTHVEEPAFLPDPNDGSLYTLGSKNNEGLTKLPFTIPELVQASPCRSSDGILYMGKKQDIWYVIDLLTGEKQQTLSSAFADSLCPSTSLLYLGRTEYTITMYDTKTRELRWNATYFDYAASLPEDDVDYKMSHFVSNGDGLVVTVDSESGDVLWIQNYASPVVAFYVWQREGLRKVMHINVAVETLRYLTFMSGEVGRITKWKYPFPKETEAKSKLTPTLYVGKYSTSLYASPSMVHEGVAVVPRGSTLPLLEGPQTDGVTIGDKGECVITPSTDVKFDPGLKSKNKLNYLRNYWLLIGHHETPLSASTKMLERFPNNLPKHRENVIPADSEKKSFEEVINLVDQTSENAPTTVSRDVEEKPAHAPARPEAPVDSMLKDMATIILSTFLLIGWVAFIITYPLSMHQQQQLQHQQFQKELEKIQLLQQQQQQLPFHPPGDTAQDGELLDTSGPYSESSGTSSPSTSPRASNHSLCSGSSASKAGSSPSLEQDDGDEETSVVIVGKISFCPKDVLGHGAEGTIVYRGMFDNRDVAVKRILPECFSFADREVQLLRESDEHPNVIRYFCTEKDRQFQYIAIELCAATLQEYVEQKDFAHLGLEPITLLQQTTSGLAHLHSLNIVHRDLKPHNILISMPNAHGKIKAMISDFGLCKKLAVGRHSFSRRSGVPGTEGWIAPEMLSEDCKENPTYTVDIFSAGCVFYYVISEGSHPFGKSLQRQANILLGACSLDCLHPEKHEDVIARELIEKMIAMDPQKRPSAKHVLKHPFFWSLEKQLQFFQDVSDRIEKESLDGPIVKQLERGGRAVVKMDWRENITVPLQTDLRKFRTYKGGSVRDLLRAMRNKKHHYRELPAEVRETLGSLPDDFVCYFTSRFPHLLAHTYRAMELCSHERLFQPYYFHEPPEPQPPVTPDAL
Kd [1]: 1.05 µM

B2: recombinant human phospho-IRE1α-Myc-DDK (aa 1-977) (natural protein)
chain: B1 chain
modifications: phosphorylated (sites not stated for this preparation)
Kd [2]: 0.32 µM

B3: GST-IRE1α-TM (aa 401-500) (domain or fragment)
chain: EEVINLVDQTSENAPTTVSRDVEEKPAHAPARPEAPVDSMLKDMATIILSTFLLIGWVAFIITYPLSMHQQQQLQHQQFQKELEKIQLLQQQQQQLPFHP
Kd [3]: 4190 µM

B4: GST-IRE1α-C (aa 468-977) (domain or fragment)
chain: MHQQQQLQHQQFQKELEKIQLLQQQQQQLPFHPPGDTAQDGELLDTSGPYSESSGTSSPSTSPRASNHSLCSGSSASKAGSSPSLEQDDGDEETSVVIVGKISFCPKDVLGHGAEGTIVYRGMFDNRDVAVKRILPECFSFADREVQLLRESDEHPNVIRYFCTEKDRQFQYIAIELCAATLQEYVEQKDFAHLGLEPITLLQQTTSGLAHLHSLNIVHRDLKPHNILISMPNAHGKIKAMISDFGLCKKLAVGRHSFSRRSGVPGTEGWIAPEMLSEDCKENPTYTVDIFSAGCVFYYVISEGSHPFGKSLQRQANILLGACSLDCLHPEKHEDVIARELIEKMIAMDPQKRPSAKHVLKHPFFWSLEKQLQFFQDVSDRIEKESLDGPIVKQLERGGRAVVKMDWRENITVPLQTDLRKFRTYKGGSVRDLLRAMRNKKHHYRELPAEVRETLGSLPDDFVCYFTSRFPHLLAHTYRAMELCSHERLFQPYYFHEPPEPQPPVTPDAL
Kd [3]: 0.67 µM
